From patent publication US20250000936A1, “TREATMENT OF GEOGRAPHIC ATROPHY” (Apellis Pharmaceuticals, Inc., priority 2021, published 2025)
Where “and” joins values, the source holds several entries; their conditions need not be identical. Equal entries are not always repeated.

Key:
[1] = system: patients with geographic atrophy (GA) secondary to age-related macular degeneration (AMD); assay: OAKS Phase 3 study: safety; settings: for Patients with new onset fellow eye eAMD: through 18 months
Method: (§1) All randomized subjects returned every month to the clinical site for assessments and additional pegcetacoplan or sham injections according to their randomization scheme until Month 12. From Month 12 onwards, subjects return to the clinical site based on their randomized treatment schedule (monthly or EOM) and follow the treatment regimen and assessments outlined in the Visit Schedule until Month 24. Safety was assessed throughout the study by a number of evaluations including: monitoring of AEs, preinjection and postinjection monitoring, blood and urine samples collected, physical examination, vital signs, and follow-up phone calls. Blood samples were also be collected for anti-therapeutic antibodies, genotyping, and clinical repository (if the subject consented to this portion).
(§2) The Safety set consisted of all subjects randomized who received at least one injection of pegcetacoplan or sham. Subjects were analyzed according to the actual treatment received. […] This population was used for all safety analyses.

[2] = system: patients with geographic atrophy (GA) secondary to age-related macular degeneration (AMD); assay: DERBY Phase 3 study: safety; settings: for Patients with new onset fellow eye eAMD: through 18 months
Method: as §1, §2

[3] = PEOM (every other month), 12 months
[4] = PEOM (every other month), 12 months, count
[5] = PEOM (every other month), 18 months
[6] = PEOM (every other month), N=212
[7] = PEOM (every other month), N=208

Substance: Poly(oxy-1,2-ethanediyl), α-hydro-ω-hydroxy-, 15,15′-diester with N-acetyl-L-isoleucyl-L-cysteinyl-L-valyl-1-methyl-L-tryptophyl-L-glutaminyl-L-α-aspartyl-L-tryptophylglycyl-L-alanyl-L-histidyl-L-arginyl-L-cysteinyl-L-threonyl-2-[2-(2-aminoethoxy) ethoxy]acetyl-N^6-carboxy-L-lysinamide cyclic (2->12)-(disulfide) [pegcetacoplan]
- All TEAEs, Total events, M [1, 3]: 721
- All TEAEs, patients [1, 3]: 160 (75.5%) n (%)
- Cases of MNV (FA) detected by reading center but not reported by Investigator as AE [1, 3]: 3
- Non-ocular TEAEs, Patients [1, 3]: 127 (59 9%) n (%)
- Non-ocular TEAEs, events M [1, 3]: 412
- Ocular TEAE in study eye Conjunctival haemorrhage, events M [1, 3]: 16
- Ocular TEAE in study eye Conjunctival haemorrhage, patients [1, 3]: 13 (6.1%) n (%)
- Ocular TEAE in study eye Eye Pain, events M [1, 3]: 14
- Ocular TEAE in study eye Eye Pain, patients [1, 3]: 12 (5.7%) n (%)
- Ocular TEAE in study eye Vitreous floaters, events M [1, 3]: 20
- Ocular TEAE in study eye Vitreous floaters, patients [1, 3]: 15 (7.1%) n (%)
- Ocular TEAEs in study eye, Patients [1, 3]: 97 (45.8%) n (%) and 97 (45.8) n (%)
- Ocular TEAEs in study eye, events M [1, 3]: 208
- Serious ocular TEAE Endophthalmitis, events M [1, 3]: 3
- Serious ocular TEAE Endophthalmitis, patients [1, 3]: 3 (1.4%) n (%)
- Serious ocular TEAE Macular hole, patients [1, 3]: 0 n (%)
- Serious ocular TEAE Optic ischemic neuropathy, patients [1, 3]: 0 n (%)
- Serious ocular TEAE Papilledema, patients [1, 3]: 0 n (%)
- Serious ocular TEAE Retinal detachment, events M [1, 3]: 1
- Serious ocular TEAE Retinal detachment, patients [1, 3]: 1 (0.5%) n (%)
- Serious ocular TEAEs in the study eye, events M [1, 3]: 4
- Serious ocular TEAEs in the study eye, patients [1, 3]: 4 (1.9%) n (%)
- Sum of investigator-determined eAMD and reading center cases not reported by investigators [1, 3]: (6.1%)
- Sum of investigator-determined eAMD and reading center cases not reported by investigators [1, 4]: 13
- All TEAEs, Total events, M [1, 5]: 965
- All TEAEs, patients [1, 5]: 177 (83.5%) n (%)
- Non-ocular TEAEs, M [1, 5]: 567
- Non-ocular TEAEs, Patients [1, 5]: 158 (74.5%) n (%)
- Ocular TEAEs in study eye, M [1, 5]: 270
- Ocular TEAEs in study eye, Patients [1, 5]: 114 (53.8%) n (%)
- Discontinued study prior to Month 12, reason Adverse Event [1, 6]: 5 (2.4%) n (%)
- Discontinued study prior to Month 12, reason Death [1, 6]: 3 (1.4%) n (%)
- Discontinued study prior to Month 18, reason Adverse event [1, 6]: 4 (1.9%) n (%)
- Discontinued study prior to Month 18, reason Death [1, 6]: 7 (3.3%) n (%)
- Patients with new onset fellow eye eAMD ([1]; PEOM (every other month), 173 patients without baseline fellow eye CNV): 5 (2.9%) n (%)
- All TEAEs, Total events, M ([1]; PM (monthly), 12 months): 751
- All TEAEs, patients ([1]; PM (monthly), 12 months): 170 (79.8%) n (%)
- Cases of MNV (FA) detected by reading center but not reported by Investigator as AE ([1]; PM (monthly), 12 months): 2
- Non-ocular TEAEs, Patients ([1]; PM (monthly), 12 months): 136 (63.8%) n (%)
- Non-ocular TEAEs, events M ([1]; PM (monthly), 12 months): 390
- Ocular TEAE in study eye Conjunctival haemorrhage, events M ([1]; PM (monthly), 12 months): 30
- Ocular TEAE in study eye Conjunctival haemorrhage, patients ([1]; PM (monthly), 12 months): 18 (8.5%) n (%)
- Ocular TEAE in study eye Eye Pain, events M ([1]; PM (monthly), 12 months): 17
- Ocular TEAE in study eye Eye Pain, patients ([1]; PM (monthly), 12 months): 15 (7.0%) n (%)
- Ocular TEAE in study eye Vitreous floaters, events M ([1]; PM (monthly), 12 months): 10
- Ocular TEAE in study eye Vitreous floaters, patients ([1]; PM (monthly), 12 months): 9 (4.2%) n (%)
- Ocular TEAEs in study eye, Patients ([1]; PM (monthly), 12 months): 108 (50.7%) n (%)
- Ocular TEAEs in study eye, events M ([1]; PM (monthly), 12 months): 256
- Serious ocular TEAE Dry AMD, patients ([1]; PM (monthly), 12 months): 0 n (%)
- Serious ocular TEAE Endophthalmitis, events M ([1]; PM (monthly), 12 months): 3
- Serious ocular TEAE Endophthalmitis, patients ([1]; PM (monthly), 12 months): 1 (0.5%) n (%)
- Serious ocular TEAE Macular hole, patients ([1]; PM (monthly), 12 months): 0 n (%)
- Serious ocular TEAE Optic ischemic neuropathy, events M ([1]; PM (monthly), 12 months): 3
- Serious ocular TEAE Optic ischemic neuropathy, patients ([1]; PM (monthly), 12 months): 1 (0.5%) n (%)
- Serious ocular TEAE Papilledema, events M ([1]; PM (monthly), 12 months): 3
- Serious ocular TEAE Papilledema, patients ([1]; PM (monthly), 12 months): 1 (0.5%) n (%)
- Serious ocular TEAE Retinal detachment, patients ([1]; PM (monthly), 12 months): 0 n (%)
- Serious ocular TEAE Vitritis, patients ([1]; PM (monthly), 12 months): 0 n (%)
- Serious ocular TEAEs in the study eye, events M ([1]; PM (monthly), 12 months): 3
- Serious ocular TEAEs in the study eye, patients ([1]; PM (monthly), 12 months): 3 (1.4%) n (%)
- Sum of investigator-determined eAMD and reading center cases not reported by investigators ([1]; PM (monthly), 12 months): (6.1%)
- Sum of investigator-determined eAMD and reading center cases not reported by investigators ([1]; PM (monthly), 12 months, count): 13
- All TEAEs, Total events, M ([1]; PM (monthly), 18 months): 1037
- All TEAEs, patients ([1]; PM (monthly), 18 months): 185 (86.9%) n (%)
- Non-ocular TEAEs, M ([1]; PM (monthly), 18 months): 573
- Non-ocular TEAEs, Patients ([1]; PM (monthly), 18 months): 152 (71.4%) n (%)
- Ocular TEAEs in study eye, M ([1]; PM (monthly), 18 months): 325
- Ocular TEAEs in study eye, Patients ([1]; PM (monthly), 18 months): 126 (59.2%) n (%)
- Discontinued study prior to Month 12, reason Adverse Event ([1]; PM (monthly), N=213): 3 (1.4%) n (%)
- Discontinued study prior to Month 12, reason Death ([1]; PM (monthly), N=213): 7 (3.3%) n (%)
- Discontinued study prior to Month 18, reason Adverse event ([1]; PM (monthly), N=213): 6 (2.8%) n (%)
- Discontinued study prior to Month 18, reason Death ([1]; PM (monthly), N=213): 12 (5.6%) n (%)
- Patients with new onset fellow eye eAMD ([1]; PM (monthly), 168 patients without baseline fellow eye CNV): 8 (4.8%) n (%)
- patients with study eye investigator-determined new-onset exudative AMD ([1]; every other month, month 18, 15/212 patients): 7.1%
- patients with study eye investigator-determined new-onset exudative AMD ([1]; monthly, month 18, 16/213 patients): 7.5%
- All TEAEs, Total events, M [2, 3]: 600
- All TEAEs, patients [2, 3]: 155 (74.5%) n (%)
- Cases of MNV (FA) detected by reading center but not reported by Investigator as AE [2, 3]: 1
- Non-ocular TEAEs, Patients [2, 3]: 110 (52.9%) n (%)
- Non-ocular TEAEs, events M [2, 3]: 339
- Ocular TEAE in study eye Vitreous floaters, events M [2, 3]: 5
- Ocular TEAE in study eye Vitreous floaters, patients [2, 3]: 4 (1.9%) n (%)
- Ocular TEAEs in study eye, Patients [2, 3]: 91 (43.8%) n (%) and 91 (43.8) n (%)
- Ocular TEAEs in study eye, events M [2, 3]: 162
- Serious ocular TEAE Dry AMD, patients [2, 3]: 0 n (%)
- Serious ocular TEAE Endophthalmitis, patients [2, 3]: 0 n (%)
- Serious ocular TEAE Macular hole, patients [2, 3]: 0 n (%)
- Serious ocular TEAE Optic ischemic neuropathy, patients [2, 3]: 0 n (%)
- Serious ocular TEAE Papilledema, patients [2, 3]: 0 n (%)
- Serious ocular TEAE Retinal detachment, patients [2, 3]: 0 n (%)
- Serious ocular TEAE Vitritis, patients [2, 3]: 0 n (%)
- Serious ocular TEAEs in the study eye, patients [2, 3]: 0 n (%)
- Sum of investigator-determined eAMD and reading center cases not reported by investigators [2, 3]: (3.8%)
- Sum of investigator-determined eAMD and reading center cases not reported by investigators [2, 4]: 8
- All TEAEs, Total events, M [2, 5]: 835
- All TEAEs, patients [2, 5]: 171 (82.2%) n (%)
- Non-ocular TEAEs, M [2, 5]: 495
- Non-ocular TEAEs, Patients [2, 5]: 132 (63.5%) n (%)
- Ocular TEAEs in study eye, M [2, 5]: 216
- Ocular TEAEs in study eye, Patients [2, 5]: 99 (47.6%) n (%)
- Discontinued study prior to Month 12, reason Adverse Event [2, 7]: 4 (1.9%) n (%)
- Discontinued study prior to Month 12, reason Death [2, 7]: 0 n (%)
- Discontinued study prior to Month 18, reason Adverse event [2, 7]: 4 (1.9%) n (%)
- Discontinued study prior to Month 18, reason Death [2, 7]: 4 (1.9%) n (%)
- Patients with new onset fellow eye eAMD ([2]; PEOM (every other month), 166 patients without baseline fellow eye CNV): 8 (4.8%) n (%)
- All TEAEs, Total events, M ([2]; PM (monthly), 12 months): 708
- All TEAEs, patients ([2]; PM (monthly), 12 months): 158 (76.7%) n (%)
- Cases of MNV (FA) detected by reading center but not reported by Investigator as AE ([2]; PM (monthly), 12 months): 0
- Non-ocular TEAEs, Patients ([2]; PM (monthly), 12 months): 127 (61.7%) n (%)
- Non-ocular TEAEs, events M ([2]; PM (monthly), 12 months): 396
- Ocular TEAE in study eye Vitreous floaters, events M ([2]; PM (monthly), 12 months): 22
- Ocular TEAE in study eye Vitreous floaters, patients ([2]; PM (monthly), 12 months): 18 (8.7%) n (%)
- Ocular TEAEs in study eye, Patients ([2]; PM (monthly), 12 months): 100 (48.5%) n (%)
- Ocular TEAEs in study eye, events M ([2]; PM (monthly), 12 months): 227
- Serious ocular TEAE Dry AMD, patients ([2]; PM (monthly), 12 months): 0 n (%)
- Serious ocular TEAE Endophthalmitis, patients ([2]; PM (monthly), 12 months): 0 n (%)
- Serious ocular TEAE Macular hole, patients ([2]; PM (monthly), 12 months): 0 n (%)
- Serious ocular TEAE Optic ischemic neuropathy, patients ([2]; PM (monthly), 12 months): 0 n (%)
- Serious ocular TEAE Papilledema, patients ([2]; PM (monthly), 12 months): 0 n (%)
- Serious ocular TEAE Retinal detachment, patients ([2]; PM (monthly), 12 months): 0 n (%)
- Serious ocular TEAE Vitritis, events M ([2]; PM (monthly), 12 months): 1
- Serious ocular TEAE Vitritis, patients ([2]; PM (monthly), 12 months): 1 (0.5%) n (%)
- Serious ocular TEAEs in the study eye, events M ([2]; PM (monthly), 12 months): 1
- Serious ocular TEAEs in the study eye, patients ([2]; PM (monthly), 12 months): 1 (0.5%) n (%)
- Sum of investigator-determined eAMD and reading center cases not reported by investigators ([2]; PM (monthly), 12 months): (6.8%)
- Sum of investigator-determined eAMD and reading center cases not reported by investigators ([2]; PM (monthly), 12 months, count): 14
- All TEAEs, Total events, M ([2]; PM (monthly), 18 months): 993
- All TEAEs, patients ([2]; PM (monthly), 18 months): 170 (82.5%) n (%)
- Non-ocular TEAEs, M ([2]; PM (monthly), 18 months): 567
- Non-ocular TEAEs, Patients ([2]; PM (monthly), 18 months): 148 (71.8%) n (%)
- Ocular TEAEs in study eye, M ([2]; PM (monthly), 18 months): 308
- Ocular TEAEs in study eye, Patients ([2]; PM (monthly), 18 months): 118 (57.3%) n (%)
- Discontinued study prior to Month 12, reason Adverse Event ([2]; PM (monthly), N=206): 1 (0.5%) n (%)
- Discontinued study prior to Month 12, reason Death ([2]; PM (monthly), N=206): 5 (2.4%) n (%)
- Discontinued study prior to Month 18, reason Adverse event ([2]; PM (monthly), N=206): 3 (1.5%) n (%)
- Discontinued study prior to Month 18, reason Death ([2]; PM (monthly), N=206): 6 (2.9%) n (%)
- Patients with new onset fellow eye eAMD ([2]; PM (monthly), 167 patients without baseline fellow eye CNV): 4 (2.4%) n (%)
- patients with study eye investigator-determined new-onset exudative AMD ([2]; every other month, month 18, 11/208 patients): 5.3%
- patients with study eye investigator-determined new-onset exudative AMD ([2]; monthly, month 18, 24/206 patients): 11.7%
